The results in this text go back to patent publication US20230045873A1.

This assay concerns the target oxMIF (recombinant human MIF immobilized into microwell plates, transforming MIF to oxMIF) (human) (UniProt P14174). In words: ELISA on immobilized MIF (oxMIF), protein L-HRP detection, mean of triplicate.

Chain of oxMIF (recombinant human MIF immobilized into microwell plates, transforming MIF to oxMIF) (human) (P14174 2-115 limits assumed): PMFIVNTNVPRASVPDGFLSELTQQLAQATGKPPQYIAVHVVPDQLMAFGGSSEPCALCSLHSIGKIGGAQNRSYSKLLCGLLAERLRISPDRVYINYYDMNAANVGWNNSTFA

For orientation: EC50 means the concentration needed to bring the measured effect to its halfway point. Consider “Imalumab (C0008), anti-oxMIF monospecific antibody”, for which the EC50 is 600 pM.
